Measured values from patent publication US20240239881A1 (Innovent, published 2024).

Legend:
[1] = molecular target: T1, hAng2-Fc protein (Sino Biological, Cat No.: 10691-H02H) (human, UniProt O15123 19-496); experiment: cell-based or functional assay
T1 sequence: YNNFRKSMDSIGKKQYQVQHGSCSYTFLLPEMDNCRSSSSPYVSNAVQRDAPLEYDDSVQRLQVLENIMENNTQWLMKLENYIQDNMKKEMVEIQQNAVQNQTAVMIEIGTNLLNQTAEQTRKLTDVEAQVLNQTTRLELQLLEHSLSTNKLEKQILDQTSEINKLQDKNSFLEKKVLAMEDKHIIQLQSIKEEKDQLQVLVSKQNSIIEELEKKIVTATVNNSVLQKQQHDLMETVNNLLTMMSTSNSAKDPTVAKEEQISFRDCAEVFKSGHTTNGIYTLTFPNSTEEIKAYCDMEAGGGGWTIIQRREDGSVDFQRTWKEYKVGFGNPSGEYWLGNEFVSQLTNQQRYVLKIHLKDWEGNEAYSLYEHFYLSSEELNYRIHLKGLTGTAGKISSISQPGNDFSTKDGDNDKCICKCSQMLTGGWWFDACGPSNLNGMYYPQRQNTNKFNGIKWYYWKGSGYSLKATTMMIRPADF

[2] = molecular target: T1, hAng2-Fc protein (Sino Biological, Cat …); experiment: blocking assay by flow cytometry: antibody titrated against hAng2-Fc (2 ug/ml final); blocked binding to human Tie2 on 293-tie2 cells; anti-human IgG-PE, MFI
Procedure: The ability of hz81H10.4 and the control antibody Nesvacumab to block the binding of human Ang2-hFc to Tie2 on the cell surface was detected by flow cytometry (FACS).
The antigen hAng2-Fc protein (Sino Biological, Cat No.: 10691-H02H) was diluted to 4 μg/ml, and added to the plate wells at 50 μl/well. Antibodies (hz81H10.4 and control antibody Nesvacumab) prepared as described above were diluted at 2-fold with a total of 12 dilution points starting from the highest concentration of 800 nM, and added to the plate wells at 50 μl/well, and incubated in PBS on ice for 30 min, where the final concentration of the antigen was 2 μg/ml and the highest concentration of antibody was 400 nM. […] The cells were centrifuged at 300 g for 5 min, and after the supernatant was discarded, the cells were resuspended in the antigen-antibody mixture. The cells were incubated on ice for 30 min, and added with PBS at 100 μl/well, centrifuged at 300 g for 5 min, and washed with PBS once. A 100 μl of goat anti-human IgG-PE (Southern Biotech, Cat. No. 2040-09) diluted at 1:200 was added to each well and placed in an ice bath for 20 min. PBS was added at 100 μl/well, and the cells were centrifuged at 300 g for 5 min, and washed once with PBS. The cells were resuspended in 100 μl PBS and the fluorescence signals of the cells were detected by a flow cytometer (BD Biosciences). […]

[3] = molecular target: T2, Rabbit ANG2 (rabbit, UniProt G1T9B3 19-496); experiment: SPR, Biacore T200, antibody captured on Protein G chip, experiment 3
T2 sequence: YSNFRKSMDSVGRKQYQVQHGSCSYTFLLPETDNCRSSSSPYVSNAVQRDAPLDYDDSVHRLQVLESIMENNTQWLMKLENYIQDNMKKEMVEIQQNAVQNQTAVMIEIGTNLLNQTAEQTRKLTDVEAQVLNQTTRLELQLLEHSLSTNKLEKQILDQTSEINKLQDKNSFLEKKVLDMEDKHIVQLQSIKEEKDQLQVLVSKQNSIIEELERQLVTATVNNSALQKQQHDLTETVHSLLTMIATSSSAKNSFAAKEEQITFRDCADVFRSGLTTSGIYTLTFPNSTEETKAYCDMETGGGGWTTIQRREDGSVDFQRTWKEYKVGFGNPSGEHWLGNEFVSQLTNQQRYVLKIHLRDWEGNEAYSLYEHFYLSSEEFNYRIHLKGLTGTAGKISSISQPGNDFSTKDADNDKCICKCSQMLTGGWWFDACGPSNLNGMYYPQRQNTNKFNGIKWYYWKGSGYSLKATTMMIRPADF
Procedure: The antibody was diluted to 1 μg/mL and was captured onto channel 2 for 30 s, and channel 1 was the blank control channel. The gradient-diluted Human ANG2, Rhesus ANG2, Rabbit ANG2, Rat ANG2 and Mouse ANG2 were sequentially injected into channels 1 and 2 of the chip, from low to high concentrations (0-32 nM), at a flow rate of 30 μL/min, with one concentration per cycle, and with 180 s association time and 1200 s dissociation time at 25° C. Finally, the chip was regenerated using Glycine pH 1.5 at 30 μL/min for 30 s. The affinity assay was repeated three times.

[4] = molecular target: T3, recombinant biotinylated hAngiopoietin-2 protein (R&D, Cat. No.: BT623B/CF) (human, UniProt O15123 19-496, limits assumed, biotinylated (sites not given)); experiment: blocking ELISA: antibody titrated against biotinylated hAng2 (300 ng/ml final); blocked binding to coated hTie2 protein; Avidin-HRP detection
T3 construct: Bought protein; also called Biotin Ang2; human biotin Ang2 protein
T3 sequence: T1 sequence
Procedure: The abilities of 81H10, 86E9, 107H7, hz81H10.4, Amhz81H10.4.30, Amhz81H10.4.49, and the control antibodies Nesvacumab and faricimab to block the binding of human Ang2 to hTie2 were determined by ELISA. Faricimab is a bispecific antibody drug undergoing a clinical trial and developed by Roche, which targets both angiopoietin-2 (Ang-2) and VEGF-A.
Then the plate was blocked using 5% BSA for 1 h. The biotinylated antigen, recombinant biotinylated hAngiopoietin-2 protein (R&D, Cat. No.: BT623B/CF), was diluted to 600 ng/ml, and was added into the microtiter plate at 50 μl/well. The antibodies (81H10, 86E9, 107H7, hz81H10.4, Amhz81H10.4.30 and Amhz81H10.4.49) prepared as described above were gradiently diluted with a total of 8 or 12 dilution points starting from the highest concentration, and then added to the microtiter plate at 50 μl/well, and incubated in PBS on ice for 30 min. Then, 50 ul of antigen solution was added to the microtiter plate, in which the final antigen concentration was 300 ng/ml. The plate containing the antigen-antibody mixture was incubated for 90 min. After three washes with PBS, the supernatant was discarded, and Avidin-HRP (Invitrogen) diluted at 1:10000 was added at 100 μl/well, then incubated at room temperature for 30 min. PBS was used to wash the plate six times. Then TMB chromogen solution (solarbio) was added at 100 ul/well to allow for chromogenic reaction for 1 min, then the reaction was terminated with the addition of stop solution (solarbio) at 100 ul/well.

IC50 (read off the curve) [1]: ~5 nM
IC50 [2]: 2.3 nM
Kd [3]: 0.446 nM
koff [3]: 0.000144 s⁻¹
kon [3]: 322000 M⁻¹ s⁻¹
IC50 [4]: 0.728 nM
B1: humanized antibody hz81H10.4 (antibody, human IgG1, kappa, V domains shown)
VH: EVQLVESGGGLVKPGGSLRLSCAASGFTFSNYWMNWVRQAPGKGLEWVAEIRLKSNNYATHYAESVKGRFTISRDVSKNTVYLQMNSLKTEDTAVYYCTDTAPFAYWGQGTLVTVSS
VL: DIQMTQSPSSLSASVGDRVTITCKASQDVGTDVAWYQQKPGKAPKLLIYWASTRHTGVPSRFSGSGSGTDFTLTISSLQPEDFATYYCQQYSSYPLTFGGGTKVEIKR
notes: also called IBI335
